Values belong to the binder of their own block, whether it stands above or below them.
Experiments:
Claudin18.2 protein = biological target: T1, Claudin18.2 protein (UniProt P56856-2 1-261, limits assumed); assay: flow cytometry of STAR-T cells stained with Claudin18.2 protein
T1 sequence (looked up): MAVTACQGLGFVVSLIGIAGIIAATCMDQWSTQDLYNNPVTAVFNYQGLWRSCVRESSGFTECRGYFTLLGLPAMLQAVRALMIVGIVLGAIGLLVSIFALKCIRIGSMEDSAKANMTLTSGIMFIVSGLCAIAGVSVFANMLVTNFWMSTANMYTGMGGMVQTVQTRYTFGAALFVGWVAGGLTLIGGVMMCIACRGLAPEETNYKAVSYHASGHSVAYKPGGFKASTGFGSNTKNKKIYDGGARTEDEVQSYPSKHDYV
From the text: The above-mentioned vectors were used to package lentiviruses and infect T cells. After one week of culture, the expression levels of STAR and Claudin18.2 on the cells were detected by flow cytometry.
Specifically, the expression of the Claudin18.2 antibody in the STAR structure on the cell membrane was detected by staining with the Claudin18.2 Protein antibody, and the positive rate of STAR vector infection was detected by mTCRβ. […] The protein binding of NCR8020-NCLD04α-STAR and NCLD04 STAR is relatively good, exceeding 55%. Both MND-NCLD04β-NCR802a STAR-mL15 and MND-NCR8020-NCLD04α STAR-mL15 can be successfully expressed on the membrane.

MSLN = biological target: T2, MSLN (UniProt Q13421 296-580, limits assumed); assay: BLI affinity detection
T2 construct: also called mesothelin

[1] = biological target: T3, Human Claudin18.2 His tag protein (human, UniProt P56856-2 1-261, limits assumed); assay: BLI (Octet), antibody on Protein A biosensor
T3 construct: also called Claudin18.2 protein; not shown: His tag
T3 sequence (looked up): T1 sequence (looked up)
Protocol: The affinity of Claudin18.2 nanobodies was determined. The affinity of the antibodies was measured using the Fortebio Octet® detection instrument based on the biolayer interferometry (BLI) technique.
After the 5 antibodies were immobilized on the Protein A biosensor, the antibodies could bind to the Human Claudin18.2 His tag protein. The measured affinity was calculated using Data Analysis 11 software of the Octet RED96e (ForteBio). The affinities (KD values) of antibody NCLD04 and antibody NCLD31 for the Claudin18.2 protein are both favorable.

[2] = biological target: human Claudin18.2 expressed on cells (human) (UniProt P56856); assay: flow cytometry on SNU1-hClaudin18.2 cells
[3] = biological target: human Claudin18.2 expressed on cells (human) (UniProt P56856); assay: flow cytometry on SNU1-hClaudin18.2 cells, APC anti-human IgG Fc secondary antibody

T2 sequence (Q13421 other isoform, or with tags, fused parts or gaps limits assumed): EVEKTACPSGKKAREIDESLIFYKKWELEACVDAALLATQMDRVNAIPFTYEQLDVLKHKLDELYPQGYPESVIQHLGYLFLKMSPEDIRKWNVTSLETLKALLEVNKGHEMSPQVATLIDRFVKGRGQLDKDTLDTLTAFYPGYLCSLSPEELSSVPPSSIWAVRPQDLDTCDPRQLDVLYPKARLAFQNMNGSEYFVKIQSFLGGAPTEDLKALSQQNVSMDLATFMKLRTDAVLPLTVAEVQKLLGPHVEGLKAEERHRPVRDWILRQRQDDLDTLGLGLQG

protein binding (percent of cells) (Claudin18.2 protein): > 55%
B1: NCLD04-STAR (NCLD04β-STAR-a(G4S)3OX40(gh)) (other)
chain 1: DVQLQESGGGLVQPGGSLRLSCTASGLTFNDYAVSWLRQAPGKEREFVATIRGSGGVTNYGASAEGRFIISRENAENTVYLQMNSLKSEDTAVYYCNARPLFGWSEEYWGQGTQVTVSSEDLRNVTPPKVSLFEPSKAEIANKQKATLVCLARGFFPDHVELSWWVNGKEVHSGVCTDPQAYKESNYSYCLSSRLRVSATFWHNPRNHFRCQVQFHGLSEEDKWPEGSPKPVTQNISAEAWGRADCGITSASYQQGVLSATILYEILLGKATLYAVLVSTLVVMAMVKRKNS
chain 2: DIQNPEPAVYQLKDPRSQDSTLCLFTDFDSQINVPKTMESGTFITDKCVLDMKAMDSKSNGAIAWSNQTSFTCQDIFKETNATYPSSDVPCDATLTEKSFETDMNLNFQNLLVIVLRILLLKVAGFNLLMTLRLWGGGGSGGGGSGGGGSRRDQRLPPDAHKPPGGGSFRTPIQEEQADAHSTLAKI
notes: Synthetic T-cell receptor and antigen receptor on T cells; NCLD04 VHH on the beta constant region; also called NCLD04-STAR-T

Kd (MSLN): 11.4 nM
B2: NM5 (VHH)
VHH: DVQLQESGGGLVQAGGSLRLSCVGAGVSFSPYGIGWWRQAQGNQREWVASIYRSGSTNYEDFAKDRFTISRDNTKNTAYLQMNSLKPEDTAVYYCQILGTSYRGQGTQVTVSS
notes: also called nanobody NM5; NM5 antibody

Kd [1]: 72.6 nM
koff [1]: 0.00456 s⁻¹
kon [1]: 62900 M⁻¹ s⁻¹
EC50 [2]: 21 nM
EC50 (read off the curve) [3]: 3 nM
B3: NCLD14 (VHH-IgG1 Fc) (Fc fusion)
chain: DVQLQESGGGLVQPGGSLRLSCATSGFTFSTYNMGWFRQAPGKEREFVGSIKWSASTTYYADSVKGRFTISRDNAKNTVYLQMNSLKPEDTAIYYCAGSPHIALGTRTEMYPYWGQGTQVTVSS
notes: Tested as VHH-IgG1 Fc; also called antibody NCLD14; not shown: IgG1 Fc fused to the VHH

— patent US20250312452A1 (BRISTAR IMMUNOTECH, published 2025)
